Article PMC6158738

Experiments:
[1] = target: PfuHAN_DND E562A (Pyrococcus furiosus); experiment: SEC
PfuHAN wt = target: T1, PfuHAN wt (Pyrococcus furiosus, UniProt Q8U3Q7 1-740); experiment: MST
T1 sequence: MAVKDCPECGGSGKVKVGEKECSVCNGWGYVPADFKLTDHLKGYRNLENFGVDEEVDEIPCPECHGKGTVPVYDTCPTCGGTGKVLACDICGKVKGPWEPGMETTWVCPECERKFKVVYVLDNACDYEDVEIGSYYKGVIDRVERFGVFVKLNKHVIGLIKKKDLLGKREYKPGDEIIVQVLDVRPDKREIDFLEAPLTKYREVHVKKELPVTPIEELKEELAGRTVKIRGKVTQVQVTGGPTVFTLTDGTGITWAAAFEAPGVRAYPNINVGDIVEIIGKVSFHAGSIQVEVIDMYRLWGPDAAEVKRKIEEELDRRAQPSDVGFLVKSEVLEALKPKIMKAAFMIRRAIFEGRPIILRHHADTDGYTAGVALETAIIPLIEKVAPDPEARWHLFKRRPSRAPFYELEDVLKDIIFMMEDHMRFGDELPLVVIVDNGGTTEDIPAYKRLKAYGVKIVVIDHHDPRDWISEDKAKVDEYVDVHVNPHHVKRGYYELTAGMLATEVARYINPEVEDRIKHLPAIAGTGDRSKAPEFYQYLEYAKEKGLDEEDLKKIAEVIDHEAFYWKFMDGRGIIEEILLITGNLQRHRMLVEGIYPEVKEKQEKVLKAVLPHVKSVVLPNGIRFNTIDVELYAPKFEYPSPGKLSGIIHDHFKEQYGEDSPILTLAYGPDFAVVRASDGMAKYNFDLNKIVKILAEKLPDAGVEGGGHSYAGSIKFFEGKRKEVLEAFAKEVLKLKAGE

PfuHAN-D3 = target: T2, PfuHAN-D3 (Pyrococcus furiosus, UniProt Q8U3Q7 201-740); experiment: EMSA
T2 sequence: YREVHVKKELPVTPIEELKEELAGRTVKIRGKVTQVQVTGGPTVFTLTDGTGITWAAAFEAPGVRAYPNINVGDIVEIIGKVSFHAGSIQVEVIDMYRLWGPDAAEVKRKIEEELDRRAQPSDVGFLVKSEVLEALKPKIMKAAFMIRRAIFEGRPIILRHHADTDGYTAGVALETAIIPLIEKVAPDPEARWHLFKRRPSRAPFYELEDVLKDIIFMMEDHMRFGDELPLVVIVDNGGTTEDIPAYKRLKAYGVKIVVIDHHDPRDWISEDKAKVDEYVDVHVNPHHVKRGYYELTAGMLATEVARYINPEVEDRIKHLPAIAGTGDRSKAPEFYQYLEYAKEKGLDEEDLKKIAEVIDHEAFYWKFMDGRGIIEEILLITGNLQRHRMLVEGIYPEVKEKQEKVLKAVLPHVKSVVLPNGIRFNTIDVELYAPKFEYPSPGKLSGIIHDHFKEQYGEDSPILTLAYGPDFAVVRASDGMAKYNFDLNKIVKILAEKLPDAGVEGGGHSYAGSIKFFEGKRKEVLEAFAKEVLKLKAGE

PfuHAN-D2 = target: T3, PfuHAN-D2 (Pyrococcus furiosus, UniProt Q8U3Q7 227-740); experiment: EMSA
T3 sequence: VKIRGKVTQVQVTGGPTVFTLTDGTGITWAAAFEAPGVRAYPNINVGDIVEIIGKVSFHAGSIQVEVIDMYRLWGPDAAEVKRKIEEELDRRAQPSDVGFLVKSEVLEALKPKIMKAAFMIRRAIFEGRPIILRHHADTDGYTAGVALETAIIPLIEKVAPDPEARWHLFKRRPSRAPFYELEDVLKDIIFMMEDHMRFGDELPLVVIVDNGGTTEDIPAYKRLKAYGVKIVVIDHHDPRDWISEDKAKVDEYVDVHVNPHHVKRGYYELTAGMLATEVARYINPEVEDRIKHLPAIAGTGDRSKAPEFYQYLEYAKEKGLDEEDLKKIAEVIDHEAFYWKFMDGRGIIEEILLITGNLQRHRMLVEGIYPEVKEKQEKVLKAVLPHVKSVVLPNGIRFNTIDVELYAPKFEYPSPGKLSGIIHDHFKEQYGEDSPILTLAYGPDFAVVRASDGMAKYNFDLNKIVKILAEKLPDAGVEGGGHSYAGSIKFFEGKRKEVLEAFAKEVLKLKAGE

PfuHAN-D1 = target: T4, PfuHAN-D1 (Pyrococcus furiosus, UniProt Q8U3Q7 305-740); experiment: EMSA
T4 sequence: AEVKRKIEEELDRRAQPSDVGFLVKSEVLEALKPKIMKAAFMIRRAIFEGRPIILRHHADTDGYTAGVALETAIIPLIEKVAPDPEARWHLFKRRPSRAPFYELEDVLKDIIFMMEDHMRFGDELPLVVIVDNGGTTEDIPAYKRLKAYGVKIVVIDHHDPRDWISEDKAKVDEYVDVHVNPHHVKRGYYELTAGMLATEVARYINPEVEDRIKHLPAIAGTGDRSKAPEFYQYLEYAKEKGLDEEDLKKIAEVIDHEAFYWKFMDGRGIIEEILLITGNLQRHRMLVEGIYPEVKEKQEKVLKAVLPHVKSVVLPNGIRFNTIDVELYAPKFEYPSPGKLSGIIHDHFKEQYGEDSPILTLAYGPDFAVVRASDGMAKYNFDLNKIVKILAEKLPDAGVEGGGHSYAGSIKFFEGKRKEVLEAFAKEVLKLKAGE

PfuHAN-D4 = target: T5, PfuHAN-D4 (Pyrococcus furiosus, UniProt Q8U3Q7 112-740); experiment: EMSA
T5 sequence: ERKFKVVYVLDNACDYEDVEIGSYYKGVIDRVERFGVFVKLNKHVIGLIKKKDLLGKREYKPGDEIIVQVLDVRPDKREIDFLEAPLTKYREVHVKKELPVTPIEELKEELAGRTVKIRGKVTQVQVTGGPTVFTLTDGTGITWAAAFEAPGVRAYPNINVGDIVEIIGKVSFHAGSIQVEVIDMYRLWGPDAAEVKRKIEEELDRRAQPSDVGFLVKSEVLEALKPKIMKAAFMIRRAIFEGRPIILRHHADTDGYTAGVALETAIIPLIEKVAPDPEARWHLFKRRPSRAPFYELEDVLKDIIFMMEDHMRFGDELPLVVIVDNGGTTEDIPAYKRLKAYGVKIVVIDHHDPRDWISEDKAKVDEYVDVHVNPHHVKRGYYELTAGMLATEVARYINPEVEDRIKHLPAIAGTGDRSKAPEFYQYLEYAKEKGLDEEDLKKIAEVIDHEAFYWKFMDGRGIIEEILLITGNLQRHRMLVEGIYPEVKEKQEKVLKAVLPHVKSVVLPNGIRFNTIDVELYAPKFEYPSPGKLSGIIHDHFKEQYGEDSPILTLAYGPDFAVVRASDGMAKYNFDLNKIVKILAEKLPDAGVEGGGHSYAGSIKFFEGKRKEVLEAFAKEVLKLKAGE

PfuHAN-D5 = target: T6, PfuHAN-D5 (Pyrococcus furiosus, UniProt Q8U3Q7 50-740); experiment: EMSA
T6 sequence: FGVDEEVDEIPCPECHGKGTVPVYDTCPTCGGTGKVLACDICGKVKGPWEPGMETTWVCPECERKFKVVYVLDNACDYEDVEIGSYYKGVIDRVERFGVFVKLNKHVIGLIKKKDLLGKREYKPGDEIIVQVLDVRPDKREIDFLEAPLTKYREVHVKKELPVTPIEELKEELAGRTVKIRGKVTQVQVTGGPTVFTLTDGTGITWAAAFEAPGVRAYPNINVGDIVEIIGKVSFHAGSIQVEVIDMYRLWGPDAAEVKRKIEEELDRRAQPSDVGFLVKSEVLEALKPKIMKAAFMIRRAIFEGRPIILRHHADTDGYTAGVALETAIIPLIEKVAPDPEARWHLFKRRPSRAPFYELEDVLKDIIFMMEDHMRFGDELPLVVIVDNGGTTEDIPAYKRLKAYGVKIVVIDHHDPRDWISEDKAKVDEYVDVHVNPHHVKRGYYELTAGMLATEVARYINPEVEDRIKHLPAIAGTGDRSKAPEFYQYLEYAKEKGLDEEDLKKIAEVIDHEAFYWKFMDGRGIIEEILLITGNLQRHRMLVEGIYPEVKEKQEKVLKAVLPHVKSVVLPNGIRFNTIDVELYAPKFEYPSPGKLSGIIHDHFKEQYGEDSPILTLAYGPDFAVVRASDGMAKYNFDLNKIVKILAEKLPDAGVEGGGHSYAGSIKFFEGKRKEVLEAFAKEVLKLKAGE

**Q.** With PfuHAN_DND E562A (domain or fragment) as the molecule, how does the stoichiometry N [1] read?
**A.** 3

B1: 42-nt ssDNA (ssDNA)
DNA: AGGCTGCGGTCGAGTTGACAGCACTGCACGCATTACTGAGCT
**Q.** Does B1 bind (PfuHAN wt)?
**A.** no binding

**Q.** Does B1 bind (PfuHAN-D3)?
**A.** no binding

**Q.** Does B1 bind (PfuHAN-D2)?
**A.** no binding

**Q.** Does B1 bind (PfuHAN-D1)?
**A.** no binding

**Q.** Does B1 bind (PfuHAN-D4)?
**A.** no binding

**Q.** Does B1 bind (PfuHAN-D5)?
**A.** no binding
